# Data taken from paper PMC3814348 (PLoS Pathogens, 2013).
# B1: EsxGMt EsxHMt-6XHis heterodimer (complex)
# chain 1: MSLLDAHIPQLVASQSAFAAKAGLMRHTIGQAEQAAMSAQAFHQGESSAAFQAAHARFVAAAAKVNTLLDVAQANLGEAAGTYVAADAAAASTYTGF
# chain 2: MSQIMYNYPAMLGHAGDMAGYAGTLQSLGAEIAVEQAALQSAWQGDTGITYQAWQAQWNQAMEDLVRAYHAMSSTHEANTMAMMARDTAEAAKWGG
# Target: Hrs, purified recombinant ( (human, mouse or zebrafish …, UniProt O14964 1-777))
# Test: pull-down
# Settings: both partners purified
binder,measurement,value
B1,Kd,5.4 µM
